Assay results reported in publication PMC6613789.

Target: apoE4 (UniProt P02649 19-317, C130R)
Assay: EMSA

Sequence of apoE4 (P02649 19-317 C130R): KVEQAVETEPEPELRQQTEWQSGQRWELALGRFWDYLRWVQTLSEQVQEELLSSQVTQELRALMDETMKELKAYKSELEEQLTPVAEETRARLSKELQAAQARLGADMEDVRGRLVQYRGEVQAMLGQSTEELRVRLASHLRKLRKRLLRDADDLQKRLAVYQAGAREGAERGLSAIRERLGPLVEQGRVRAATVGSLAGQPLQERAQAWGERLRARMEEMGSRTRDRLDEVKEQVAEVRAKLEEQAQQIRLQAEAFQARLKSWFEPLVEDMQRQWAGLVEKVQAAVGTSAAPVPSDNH

B1: CLEAR EMSA probe (dsDNA)
DNA 1: GTAGGTCACGTGACCGGG
DNA 2: CCCGGTCACGTGACCTAC
B1: binds.
